# Measured values as given in the nanobody polyreactivity screen of Harvey et al. (2022).
# Experiment: yeast display, Sf9 membrane polyspecificity reagent, FACS + sequencing; frameworks hold sequencing errors
# How it was run: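 Synthetic nanobody libraries on Saccharomyces cerevisiae BJ5465 were galactose-induced for 36–48 hours, stained 1 hour at 4 °C with 10% biotinylated, detergent-solubilized Sf9 membrane reagent and enriched on streptavidin microbeads. FACS then separated cells into low and high (top ~1%) gates by anti-HA (expression) and streptavidin (reagent binding) fluorescence. Genes were colony-PCR amplified, MiSeq 2 × 250 sequenced and CDR-length filtered. A clone's polyreactivity label is that of its gate of origin.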
row,Sequence,polyreactivity (PSR sort gate)
1,QVQLVVSGGGLVQAGGSLLLSCAASGFTFYSYAMGWYRQAPGKERELVAGISWSGTRTYYADSVKGRFTISRDNAKNTVYLQMISLKPEDTAVYYCAARGYRYGYGYWGQGTQVTVSS,high polyreactivity
2,QVQLVESGGVLVQAGGSLRLSCAASGFTLKWNAMGWYRQAPGKERELVARISRSGGSTNYADSVKGRFTISRDNAKNTVYLQMISLKPEDTAVFYCNTPSSREMDYWGQGTQVTVSS,low polyreactivity
3,QVQLVESGGGLVQAGGSLRLSCAASGRILLHYAMGWYRQAPGKERELVAAITSTGGTTYYADSVKGRFTISRDYAKNTFYLQMNSLKPEDTAVYYCAAKRQDSWGGTYGYWGQGTQVTVSS,low polyreactivity
4,QVQLVESGGGLVQAGGSLRLSCAASGRIFGPYTKGWYRQAPGKERQLVAAISCSGGSTYYADSVKGRFTISRDNAKNTVYLQMNSLKPEDTAVSYCKADHPFPQYEGGSSGQGTQVTVSS,low polyreactivity
5,QVQLVESGGGLVQAGGSLRLSCAASGSILAGYAMGWYRQAPGKERELVAAISGGGGSTYYADSVKGRFTISRDNAKNTVYLQMNSLKPEDTAVYYCAAQDTYYGLFSYWIPWSGYWGQGTQVTVSS,high polyreactivity
6,QVQLVESGGGLVQAGGSLRLSCAASGRTFRNNAMGLCRQAPGKEREFVAVISNTGGSTYYADSVKGRFTISRDNAKNTVYLQMNSLKPEDTAVYYCAVRPRYSQYYYWGQGTQVTVSS,high polyreactivity
7,QVQLVESGGGLVQAGGSLRLSCAASGSIFSTYAMGWYRQAPGKERELVAAITSDGTYADSVKGRFTISRDNAKNTVYLQLNSLKPEDTAVYYCNKDIKSATDSYHYEDDYWGQGTQVTVSS,low polyreactivity
8,QVQLVESGGGLVQAGGSLRLTCAASGTFFMGWYRQAPGKERELVAGISISDGSTYYADSVKGRFTISRDNAKNTVYLQMNSLKPEDTAVYYCAADSHYLYDYWGQGTQVTVSS,low polyreactivity
9,QVKLVESGGGLVHAGGSLRLICAASGFTFGEYAMVWSRQSPGKERELVAGISWSGGGTYYADSVKGRFTISRDNAKYTVYLQMNSLKPEDTAVYYCAAVLPSTSYKYDYWGQGTQVTVSS,low polyreactivity
10,QVQLVESGGGLVQAGGSLRLSCAASGYTFGSNVMGWYRQAPGKERELVAAITFSGGSTYYADSVKRRFTISRDNAKNTVFLLMIRLKPEDTAVYYCAVRYVRYYAWYYYWGQGTQVTVSS,high polyreactivity
11,QVQLHESGGGLVQAGGSLRLSCAASGTISYAGPMGWYRQAPGKEREFVAAIGVGSNTNYADSVKGRYTIIRDNAKNTVYLQMNSLKPEDTAVYYCAVGGYAPLGRPYWCQGTQVTVSS,low polyreactivity
12,QVQLVESGGGLVQAGGSLRLSCAASGRIFRYYAMGWYRQAPGKERELVATISRSGGSTFYADSVKGRFTISRDNAKNTVYLQMNSLKPEDTAVYYCNARYQTGGYGYWGQGTQVTVSS,high polyreactivity
13,QVQLVESGGGLVQAGGSLRLSCAASGFIFNRYVMGWYRQAPGKERELVAVISRGGSTSYADSVKGRFTISRDNAKNTVYLQMNSLKPEDTAVYYCNAVHSRVYYSLGYGYWGLGTQVTVSS,high polyreactivity
14,QVQLVESGGGLVQAGGSLRLSCAASGRIFIINAMGWYRQAPGKERELVAAITGTGSTYYADSVKGRFTISRDNAKNTVYLQMNSLKPEDTAVYYCAADVSYTYYGFWYDEYYWGQGTQVTVSS,high polyreactivity
15,QVQVVESGGGLVQAGASLRLSCAATGSIFVWNDMGGYRQAPGTEREFVAAITSGDGSTYYADSVKGRFTISRDNAKNTGYLQMNSLKPEDTAVYYCAARLRVTGFYSRTRFYWGQGTQVTVSS,low polyreactivity
16,QVQLVESGGGLVQAGGSLRLSCAASGSSKLRLWDGIDRRLGQKGSWLPLFVLVVLRNYADSVKGRFTISSDNAKNTVYLQMNSLKPEDTAVYYCAATPIGSGGWGDYWGQGTQVTVSS,low polyreactivity

row,Sequence,polyreactivity (PSR sort gate)
1,QVQLVESGGGLVQAGGSLRLSCAASGRTFYYYAMGWYRQAPGKEREFVASITWRGGRTYYADSVKGRFTISRDNAKNTVYLQMNSLKPEDTAVYYCAAESYHPEYYYWGQGTQVTVSS,high polyreactivity
2,QVQLVESGGGLVQAGGSLRLSCAASGIIFYDYAMGWYRQAPGKERELVAAISGSGGSTYYADSVKGRFTISRDNAKNTVYLQMNSLKPEDTAVYYCAARFTRQMYYWGQGTQVTVSS,high polyreactivity
3,QVQLVESGGGLVQAGGSLRLSCAASGLTFDYYAMGWYRQAPGKERELVAAISSSGGSTYYADSVKGRFTISRDNAKNTVYLQMNSLKPEDTAVYYCNAGGRRRIFAHSSTGDYWGQGTQVTVSS,high polyreactivity
4,QVQLEESGGGLVQAGGSLRLSCAASGITFVGNAMGWYRQAPGKERELVAGIRGNGGSTYYADSVKGRFTISRDNAKNTVYLQMHSMNPEDTAVYYCAAAAYYADFDYWGQGTQVTVSS,low polyreactivity
5,QVQLVESGGGLVQAGGSLRLSCAASGSTFTIYAMGGYRQAPGKERELVAAITRGGSTNYADSVKGRFTISRDNAKNTVYLQMNSLKPEDTAVYYCNKVVPGYSAAKYDYWGQGTQVTVSS,high polyreactivity
6,QVQLVESGGGLVQAGGSLRLSCAASGSTFDIYVMGWYRQAPGKEREFVAAITTTTGRTNYADSVKGRFTISRDYAKNTVYLQMNSLKPEDTAVYYCAAYVTWGKLWYGYWGQGTQVTVSS,high polyreactivity
7,QVQLVESGGGLVQAGGSLRLSCAASGITFVYYDMGWYRQAPGKERELVAAISSGGSTYYADSVKGRFTISRDNAKNNVYLQMNRLKPEDTAVYYCAAKISSNYHIGGDDYWGQGTQVTVSS,high polyreactivity
8,QVHLVESGGGLVQAGGSLRLSCAASGSIFGNNAMGWYRQAPGKERELVAAISSGGSTNYADSVKGRFTISRDNAKNTVYLQMNSLKPEDTAFYYCAKHSWSRAFSWATRLHWRYDYWGQGTQVTVSS,low polyreactivity
9,QVQLVESGGGLVQAGGSLRLSCAASGITFYGYDKGWYRQAPGKERELGAAITSDGITNYADSVKGRFTISRDNAKNTVYLQMNSLKPEDTAVYYCAADLSFYRRYEWYYYWGQGTQVTVSS,low polyreactivity
10,QVQLVESGGGLVQAGGSLRLSCAASGSIFGTNTMGWYRQAPGKEREFVAVITGSTTSTYYADSVKWRFTISRDNANNTVYLQMNSLIPEDTAVYYCADEPGSRSYGGDYWGQGTQVTVSS,high polyreactivity
11,QVQLVESGGGLVQAGGSLRLSCAASGSIFFANAMGWYRQAPGKERELVATITSGGSTTYADSVKGRFTISRDNAKNTVYLQMNSLKPEDTAVYYCNADYDYGWVFYSNYDYWGQGTQVTVSS,low polyreactivity
12,QVQLVESGGGLVQAGGSLRLSCAASGRIFGKYAMGWYRQAPRKERELVARISFSGGTTYYADSVKGRFTISRDNAKNTVYLQMKSLKPEDTAVYYGNARRVWSQRWAYDSWGQGTQVTVSS,high polyreactivity
13,QVQLVESGGGLVQAGGSLRLSCAASGSTLRGYAMGWYRQAPGKERELVAAITYISDSTYYADSVKGRFTISRDNAKNTVYLQMNSLKPEDTAVYYCNAYYDGDWRYTSQETGDHWGQGTQVTVSS,low polyreactivity
14,QVQLVESGGGLVQAGGSLRLSCAASGRTFTGNALGWYRQAPGKERELVAAISQRGGRTNYADSVKGRFTISRDNAKNTVYLQMNSLKPEDTAVYYCAADLGYYYFFGSNYAYDYWGQGTQVNVSS,low polyreactivity
15,QVQLQESGGGLVQAGGSLRMSCAASGSISHYIFMGWYRQAPGKEREFVAGIGYGGTTNYADSVKVRFTISRDNAKNTVYLQMNRLKPEDTAMYYCAAREATEFYLYYWGQGTQVTVSS,low polyreactivity
16,QVQLVESGGGLVQAGGSLRLSCAASGITFIYYAMGWYSQAPGKDRELVAAISRSGGSTYYADSVKGRFTISRDNAKNTVYLQMNSLKPEETAVYYCAADGSKYSGRVTGDYWGQGTQVTVSS,high polyreactivity
